Source: patent US9389219B2, “Methods for screening inhibitors of tumor associated protein aggregation” (Vrije Universiteit Brussel, priority 2011, dated 2016)

Key:
[1] = molecular target: p53β (p53-aggregating sequence ILTIITL) (Homo sapiens, UniProt P04637); test: In vitro peptide-binding assay (PepSpot membrane, biotinylated p53β peptide, streptavidin-HRP); settings: immobilized peptide, p53β self-interaction = 100,00
Excerpt: In order to identify aggregating peptides that match p53β, the human proteome for peptides that have high homology with the p53β peptide were screened. While p53β is unique to p53, in silico analysis identified 56 additional peptides (Table 2) that have no more than two mismatches with p53β. Subsequently, the ability of the selected peptides to interact with p53β using an in vitro peptide-binding assay was empirically determined. Therefore, the 56 selected peptides were spot-synthesized on a cellulose membrane, which was subsequently incubated with biotinylated p53β peptide (FIG. 17, panel b). After washing, the membrane was treated with streptavidine-HRP to detect p53β binding (FIG. 17, panel c). Consistently, the assay successfully identified control peptides including p53β itself, as well as the equivalent sequences from p63 and p73. […] The sequence identity between p53β and their interacting peptide, however, is 75%. Although the function of the proteins from which these 33 interacting peptides stem is often poorly characterized, some interesting cases can be identified. Along with the previously identified p63 and p73, which are inactivated by mutant p53 in cancer, segments were found belonging to Copine-2 (CPNE2), which is a negative regulator of growth factor signaling,^72 methionine synthase (METH), which has been associated to methionine dependence in tumors,^64 CGRF1, a negative regulator of cell proliferation,^67 and caspase-8 (CASP8), a key element for apoptosis, the inactivation of which is associated to chemoresistance and found in a variety of human cancers.^66
Peptides of selected sequences were spot synthesized on PVDF membrane (PepSpot, JPT). The membranes were blocked by 1% BSA in phosphate-buffered saline for 1 hour at room temperature, and then incubated with biotinylated peptide containing the p53-aggregating sequence for 1 hour. After rinsing with 0.1% TWEEN® 20 in 25 mM MES buffer pH 7.0, membranes were incubated in HRP-labeled Streptavidin (Thermo) and visualized with electrochemical luminescence (ECL) system.

WT p53 in U2OS cells [2] = test: Western blot of p53 in U2OS cells treated with chemotherapeutic agents; format: cell-based, human
WT p53 in U2OS cells [3] = test: Native page analysis of p53 in treated U2OS cells; format: cell-based, human
[4] = test system: mutant p53 inclusions in SaOS-2 cells; test: Nocodazole treatment of transfected SaOS-2 cells, immunofluorescence of aggresomal inclusions; format: cell-based, human
Protocol: To further investigate the aggresomal nature of the observed inclusions, several strategies were adopted. (i) Since the formation of cytoplasmic inclusions in aggresomes is an active process that depends on cytoskeletal integrity,^15 transfected cells were treated with nocodazole, a small chemical that disrupts microtubule assembly. […] (ii) The oligomerization state of p53 in SaOS-2 cells by Blue-Native PAGE (BN-PAGE) and Western blot analysis was also assessed, after cell lysis with a mild detergent (CHAPS). […] In denaturing but non-reducing PAGE, the oligomers and aggregates were dissociated into monomers, and all mutants were expressed at similar levels (FIG. 2, panel c).
Since co-aggregation of proteins depends strictly on sequence similarity rather than hydrophobicity,^27 mutant p53 might also be able to induce co-aggregation and inactivation of p63 and p73. To investigate this hypothesis, mutant p53 and the transactivation domain (TA) of p63 or p73 (TAp63α/TAp73α) were co-expressed in SaOS-2 cells. […]
In the degradation stability test, protein synthesis was blocked by 60 μg/mL cycloheximide 24 hours after transfection, and cells were lysed 0, 3, 6, 12, 24 and 48 hours after the addition of cycloheximide. […] Cells were analyzed by immunofluorescence after 24 hours.

Compound: ILTKPTL (listed as Homo sapiens) [peptide from MYST3_HUMAN]
- Binding intensity (normalized) [1]: 16,14

Compound: ILDIITS (listed as Homo sapiens) [peptide from ANXA6_HUMAN]
- Binding intensity (normalized) [1]: 78,87

Compound: LLTIINL (listed as Homo sapiens)
- Binding intensity (normalized) [1]: 1,55

Compound: ITTGITL (listed as Homo sapiens) [peptide from CGRF1_HUMAN]
- Binding intensity (normalized) [1]: 36,69

Compound: IEVIITL (listed as Homo sapiens) [peptide from CXL11_HUMAN]
- Binding intensity (normalized) [1]: 8,54

Compound: ILGKITL (listed as Homo sapiens) [peptide from MP2K4_HUMAN]
- Binding intensity (normalized) [1]: 16,85

Compound: ILTKISL (listed as Homo sapiens) [peptide from HEAT1_HUMAN]
- Binding intensity (normalized) [1]: 8,65

Compound: ILTISSL (listed as Homo sapiens) [peptide from KV122_HUMAN]
- Binding intensity (normalized) [1]: 23,80

Compound: ILTKYTL (listed as Homo sapiens) [peptide from NOL11_HUMAN]
- Binding intensity (normalized) [1]: 33,34

Compound: KLTIITS (listed as Homo sapiens) [peptide from CM031_HUMAN]
- Binding intensity (normalized) [1]: 17,88

Compound: IYTGITL (listed as Homo sapiens)
- Binding intensity (normalized) [1]: 32,12

Compound: GLTIPTL (listed as Homo sapiens)
- Binding intensity (normalized) [1]: 10,86

Compound: ILTDVTL (listed as Homo sapiens)
- Binding intensity (normalized) [1]: 5,88

Compound: ILTILCL (listed as Homo sapiens)
- Binding intensity (normalized) [1]: 4,81

Compound: ITTVITL (listed as Homo sapiens) [peptide from CD041_HUMAN]
- Binding intensity (normalized) [1]: 5,27

Compound: ILTLIEL (listed as Homo sapiens) [peptide from SMG1_HUMAN]
- Binding intensity (normalized) [1]: 9,77

Compound: RRPILTIITLEDGS (listed as Homo sapiens) [reference compound]
- Binding intensity (normalized) [1]: 30,92

Compound: IKTIINL (listed as Homo sapiens) [peptide from PTPC1_HUMAN]
- Binding intensity (normalized) [1]: 9,72

Compound: IQTISTL (listed as Homo sapiens) [peptide from SCC4_HUMAN]
- Binding intensity (normalized) [1]: 7,06

Compound: ILCDITL (listed as Homo sapiens) [peptide from KLH32_HUMAN]
- Binding intensity (normalized) [1]: 7,89

Compound: ILTSGTL (listed as Homo sapiens) [peptide from RTEL1_HUMAN]
- Binding intensity (normalized) [1]: 17,31

Compound: ILTILTE (listed as Homo sapiens) [peptide from CASP8_HUMAN]
- Binding intensity (normalized) [1]: 11,43

Compound: ILTITTP (listed as Homo sapiens) [peptide from CBPC3_HUMAN]
- Binding intensity (normalized) [1]: 19,59

Compound: COc1cccc2c1C(=O)c1c(O)c3c(c(O)c1C2=O)C[C@@](O)(C(=O)CO)C[C@@H]3O[C@H]1C[C@H](N)[C@H](O)[C@H](C)O1 [doxorubicin]
- p53 expression level (Western blot) (WT p53 in U2OS cells [2]): increased expression levels of p53
- p53 high molecular-weight species (native page) (WT p53 in U2OS cells [3]): high molecular-weight species of p53

Compound: ILTIITL (listed as Homo sapiens)
- Binding intensity (normalized) [1]: 100,00

Compound: CC(C)C[C@H](NC(=O)[C@H](Cc1ccccc1)NC(=O)c1cnccn1)B(O)O [Bortezomib]
- p53 high molecular-weight species (native page) (WT p53 in U2OS cells [3]): smear was comparable

Compound: ILQIITE (listed as Homo sapiens) [peptide from DHX29_HUMAN]
- Binding intensity (normalized) [1]: 15,64

Compound: ILSIDTL (listed as Homo sapiens) [peptide from SPEF2_HUMAN]
- Binding intensity (normalized) [1]: 79,63

Compound: MLTEITL (listed as Homo sapiens)
- Binding intensity (normalized) [1]: 3,03

Compound: IKSIITL (listed as Homo sapiens) [peptide from CT132_HUMAN]
- Binding intensity (normalized) [1]: 4,39

Compound: ILIIVTL (listed as Homo sapiens) [peptide from P63_HUMAN]
- Binding intensity (normalized) [1]: 92,04

Compound: ILQIISL (listed as Homo sapiens) [peptide from PK3C3_HUMAN]
- Binding intensity (normalized) [1]: 26,33

Compound: ALVIITL (listed as Homo sapiens) [peptide from CCNI2_HUMAN]
- Binding intensity (normalized) [1]: 43,37

Compound: ILTEIHL (listed as Homo sapiens) [peptide from RFC5_HUMAN]
- Binding intensity (normalized) [1]: 12,86

Compound: ILTFKTL (listed as Homo sapiens) [peptide from DYH3_HUMAN]
- Binding intensity (normalized) [1]: 6,20

Compound: FLTIFTL (listed as Homo sapiens) [peptide from PRA10_HUMAN]
- Binding intensity (normalized) [1]: 26,40

Compound: ILLIITD (listed as Homo sapiens) [peptide from CPNE2_HUMAN]
- Binding intensity (normalized) [1]: 111,13

Compound: ILKQITL (listed as Homo sapiens)
- Binding intensity (normalized) [1]: 19,84

Compound: DLTIIDL (listed as Homo sapiens) [peptide from MX2_HUMAN]
- Binding intensity (normalized) [1]: 40,18

Compound: LLTIILL (listed as Homo sapiens)
- Binding intensity (normalized) [1]: 3,95

Compound: ILTIVSL (listed as Homo sapiens) [peptide from DHX33_HUMAN]
- Binding intensity (normalized) [1]: 10,20

Compound: LLTIETL (listed as Homo sapiens)
- Binding intensity (normalized) [1]: 26,55

Compound: ILTKSTL (listed as Homo sapiens) [peptide from CND2_HUMAN]
- Binding intensity (normalized) [1]: 17,86

Compound: IVTIITA (listed as Homo sapiens)
- Binding intensity (normalized) [1]: 17,21

Compound: ILTIGTG (listed as Homo sapiens)
- Binding intensity (normalized) [1]: 49,22

Compound: TLTISTL (listed as Homo sapiens) [peptide from KV117_HUMAN]
- Binding intensity (normalized) [1]: 10,18

Compound: ILTIKEL (listed as Homo sapiens) [peptide from ZN830_HUMAN]
- Binding intensity (normalized) [1]: 14,09

Compound: COC(=O)Nc1nc2ccc(C(=O)c3cccs3)cc2[nH]1 [nocodazole]
- vimentin network and aggregates of mutant p53 and p63/p73 ([4]; SaOS-2 cells co-expressing aggregating p53 mutants and TAp63α/TAp73α): disrupted the vimentin network and resulted in diffused punctuate aggregates in the cytoplasm
- cellular distribution of mutant p53 ([4]; SaOS-2 cells over-expressing mutant p53): shifted from a punctate to a diffuse cytoplasmic staining

Compound: ALTFITL (listed as Homo sapiens) [peptide from BN3D2_HUMAN]
- Binding intensity (normalized) [1]: 6,47

Compound: ILVIITR (listed as Homo sapiens) [peptide from LONF2_HUMAN]
- Binding intensity (normalized) [1]: 6,81

Compound: ILIIITL (listed as Homo sapiens) [peptide from P73_HUMAN]
- Binding intensity (normalized) [1]: 98,99

Compound: IHAIITL (listed as Homo sapiens) [peptide from LRC40_HUMAN]
- Binding intensity (normalized) [1]: 8,22

Compound: ILTNTTL (listed as Homo sapiens) [peptide from CC132_HUMAN]
- Binding intensity (normalized) [1]: 76,96

Compound: VLTISTL (listed as Homo sapiens)
- Binding intensity (normalized) [1]: 6,72

Compound: ILKNITL (listed as Homo sapiens) [peptide from BPA1_HUMAN]
- Binding intensity (normalized) [1]: 12,10

Compound: ILTICTK (listed as Homo sapiens)
- Binding intensity (normalized) [1]: 6,48

Compound: ILTSQTL (listed as Homo sapiens)
- Binding intensity (normalized) [1]: 2,39

Compound: CLTIITG (listed as Homo sapiens) [peptide from TRI18_HUMAN]
- Binding intensity (normalized) [1]: 3,67

Compound: ILRQITL (listed as Homo sapiens) [peptide from CD2A1_HUMAN]
- Binding intensity (normalized) [1]: 14,74
